Reference: patent publication US9889195B2, “Immunogenic composition and uses thereof” (THE UNIVERSITY OF MELBOURNE, priority 2009, dated 2018)

Test: Overall electrostatic charge of lipopeptide or protein antigen
Format: physicochemical

For hen egg lysozyme [HEL], the overall charge was “+8”.

B1: ovalbumin (protein, UniProt P01012 2-386, looked up)
Ovalbumin: GSIGAASMEFCFDVFKELKVHHANENIFYCPIAIMSALAMVYLGAKDSTRTQINKVVRFDKLPGFGDSIEAQCGTSVNVHSSLRDILNQITKPNDVYSFSLASRLYAEERYPILPEYLQCVKELYRGGLEPINFQTAADQARELINSWVESQTNGIIRNVLQPSSVDSQTAMVLVNAIVFKGLWEKAFKDEDTQAMPFRVTEQESKPVQMMYQIGLFRVASMASEKMKILELPFASGTMSMLVLLPDEVSGLEQLESIINFEKLTEWTSSNVMEERKIKVYLPRMKMEEKYNLTSVLMAMGITDVFSSSANLSGISSAESLKISQAVHAAHAEINEAGREVVGSAEAGVDAASVSEEFRADHPFLFCIKHIATNAVLFFGRCVSP
notes: model protein antigen (Sigma Aldrich)
B1 showed an overall negative charge of 11.
